Laboratory results taken from article PMC3655264, “A Large-Scale Conformational Change Couples Membrane Recruitment to Cargo Binding in the AP2 Clathrin Adaptor Complex” (Cell, 2010).

Experiments:
[1] = biological target: liposomes displaying both TGN38 YxxΦ peptide (m4) and CD4 dileucine peptide (m5); assay: SPR; conditions: 10% PtdIns4,5P2 + 0.5% TGN38 + 0.5% CD4 liposomes; five AP2 concentrations ranging from 50 nM to 1 μM
[2] = biological target: lipid-linked TGN38 sorting motif peptide (…) displayed in liposomes; assay: SPR; conditions: for Kd: 10% PtdIns4,5P2 + 1% TGN38 liposomes, five AP2 concentrations ranging from 50 nM to 1 μM
[3] = biological target: lipid-linked phosphorylated CD4 dileucine sorting signal peptide (…(SP)…) displayed in liposomes; assay: SPR; conditions: for Kd: 10% PtdIns4,5P2 + 1% CD4P liposomes, five AP2 concentrations ranging from 50 nM to 1 μM
[4] = biological target: liposomes containing 10% PtdIns4,5P2 (no cargo peptide); assay: SPR; conditions: 10% PtdIns4,5P2 liposomes; five AP2 concentrations ranging from 50 nM to 1 μM
[5] = biological target: fluorescein-labeled TGN38 YxxΦ peptide (ASDYQRL); assay: fluorescence polarisation; stopped-flow polarized fluorescence, pre-steady-state kinetics, without heparin; 1 μM fluorescein peptide, protein at pseudo-first order excess; single exponential fits, kapp = koff + kon.C
[6] = biological target: lipid-linked TGN38 sorting motif peptide (…) displayed in liposomes; assay: not stated; unpublished data (S.H.); binding of AP2 cores to YxxΦ/PtdIns4,5P2-containing liposomes
[7] = biological target: lipid-linked TGN38 sorting motif peptide (…) displayed in liposomes; assay: SPR; peptido-liposomes with 10% PtdIns4,5P2 and lipid-linked peptide captured on an L1 sensor surface (BIAcore 3000, T100); AP2 cores injected; 10 mM Tris pH 8.7, 250 mM NaCl, 1 mM DTT; corrected for binding to PC/PE or PtdIns4,5P2 liposomes; apparent
[8] = biological target: lipid-linked phosphorylated CD4 dileucine sorting signal peptide (…(SP)…) displayed in liposomes; assay: as above
Target sequence in this assay (peptide, as listed by the source): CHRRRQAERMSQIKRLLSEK

[9] = biological target: fluorescein-labeled TGN38 YxxΦ peptide (ASDYQRL); assay: fluorescence polarisation; stopped-flow polarized fluorescence, pre-steady-state kinetics; AP2 preincubated for 30 min with 200 μM heparin; 1 μM fluorescein peptide
[10] = biological target: fluorescein-labeled TGN38 YxxΦ peptide (ASDYQRL); assay: fluorescence polarisation; equilibrium anisotropy titration with 500 μM polymeric heparin (~50 subunits); 20 nM fluorescein peptide; 21°C; 10 mM Tris pH 8.7, 250 mM NaCl

AP2 core (recombinant; α trunk, β2 trunk, myc-tagged μ2, σ2) (from UniProt P63010;P84092;P62743) μ2PIP- (μ2 5K>E and μ2 KRR>E combined; individual residues not printed), sequence (P62743 whole entry, looked up, change not shown): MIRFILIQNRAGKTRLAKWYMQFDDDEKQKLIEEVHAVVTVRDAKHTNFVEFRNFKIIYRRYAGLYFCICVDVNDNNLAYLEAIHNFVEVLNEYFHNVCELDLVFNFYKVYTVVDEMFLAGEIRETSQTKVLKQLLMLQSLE
AP2 core (recombinant; α trunk, β2 trunk, myc-tagged μ2, σ2) (from UniProt P63010;P84092;P62743) μ2PIP- (μ2 5K>E and μ2 KRR>E combined; individual residues not printed), sequence (P84092 whole entry, looked up, change not shown): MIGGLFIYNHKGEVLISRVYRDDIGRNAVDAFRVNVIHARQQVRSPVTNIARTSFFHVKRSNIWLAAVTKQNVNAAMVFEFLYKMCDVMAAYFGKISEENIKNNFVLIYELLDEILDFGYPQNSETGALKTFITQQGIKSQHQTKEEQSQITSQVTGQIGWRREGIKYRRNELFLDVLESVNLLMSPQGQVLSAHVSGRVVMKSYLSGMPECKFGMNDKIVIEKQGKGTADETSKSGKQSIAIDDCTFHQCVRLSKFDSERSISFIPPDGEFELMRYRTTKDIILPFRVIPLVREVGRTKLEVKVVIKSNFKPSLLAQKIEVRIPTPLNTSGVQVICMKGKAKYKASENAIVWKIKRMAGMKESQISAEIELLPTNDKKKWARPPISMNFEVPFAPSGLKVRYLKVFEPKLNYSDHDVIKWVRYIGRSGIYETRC
AP2 core (recombinant; α trunk, β2 trunk, myc-tagged μ2, σ2) (from UniProt P63010;P84092;P62743) μ2PIP- (μ2 5K>E and μ2 KRR>E combined; individual residues not printed), sequence (P63010 whole entry, looked up, change not shown): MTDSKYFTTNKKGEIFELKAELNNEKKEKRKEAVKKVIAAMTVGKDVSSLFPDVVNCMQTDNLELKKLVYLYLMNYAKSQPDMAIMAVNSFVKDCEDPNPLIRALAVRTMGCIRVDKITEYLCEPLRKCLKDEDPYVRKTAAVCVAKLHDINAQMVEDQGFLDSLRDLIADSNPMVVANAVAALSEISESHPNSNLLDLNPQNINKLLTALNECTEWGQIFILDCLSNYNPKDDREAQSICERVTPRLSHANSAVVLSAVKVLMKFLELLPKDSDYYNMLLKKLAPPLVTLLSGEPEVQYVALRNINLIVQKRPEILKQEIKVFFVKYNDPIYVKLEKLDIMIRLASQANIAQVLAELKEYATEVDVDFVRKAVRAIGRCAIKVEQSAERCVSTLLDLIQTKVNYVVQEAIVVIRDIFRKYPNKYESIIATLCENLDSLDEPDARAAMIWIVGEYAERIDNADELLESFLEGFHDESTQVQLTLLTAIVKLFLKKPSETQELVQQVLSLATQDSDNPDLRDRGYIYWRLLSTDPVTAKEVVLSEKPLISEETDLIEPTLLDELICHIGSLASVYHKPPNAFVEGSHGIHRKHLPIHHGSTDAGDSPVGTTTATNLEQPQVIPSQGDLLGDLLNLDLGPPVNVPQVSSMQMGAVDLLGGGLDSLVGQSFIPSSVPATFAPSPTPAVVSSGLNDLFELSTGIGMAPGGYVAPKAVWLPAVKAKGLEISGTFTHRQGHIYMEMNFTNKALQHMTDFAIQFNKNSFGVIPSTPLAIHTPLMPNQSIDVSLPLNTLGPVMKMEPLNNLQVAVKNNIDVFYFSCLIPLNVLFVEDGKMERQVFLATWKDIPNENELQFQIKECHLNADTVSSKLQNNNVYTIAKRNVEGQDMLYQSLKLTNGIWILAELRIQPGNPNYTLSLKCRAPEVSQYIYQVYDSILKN
AP2 core (recombinant; α trunk, β2 trunk, myc-tagged μ2, σ2) (from UniProt P63010;P84092;P62743) αPIP- (substitutions in the PtdIns4,5P2-binding site of α; not printed), sequence (P62743 whole entry, looked up, stated change not applied): as the sequence (P62743 whole entry, looked up, change not shown) above
AP2 core (recombinant; α trunk, β2 trunk, myc-tagged μ2, σ2) (from UniProt P63010;P84092;P62743) αPIP- (substitutions in the PtdIns4,5P2-binding site of α; not printed), sequence (P84092 whole entry, looked up, stated change not applied): as the sequence (P84092 whole entry, looked up, change not shown) above
AP2 core (recombinant; α trunk, β2 trunk, myc-tagged μ2, σ2) (from UniProt P63010;P84092;P62743) αPIP- (substitutions in the PtdIns4,5P2-binding site of α; not printed), sequence (P63010 whole entry, looked up, stated change not applied): as the sequence (P63010 whole entry, looked up, change not shown) above
μ2^PIP-Core (AP2 core with the μ2 mutations 5K>E and KRR>E combined), sequence (P62743 whole entry, looked up, stated change not applied): as the sequence (P62743 whole entry, looked up, change not shown) above
μ2^PIP-Core (AP2 core with the μ2 mutations 5K>E and KRR>E combined), sequence (P84092 whole entry, looked up, stated change not applied): as the sequence (P84092 whole entry, looked up, change not shown) above
μ2^PIP-Core (AP2 core with the μ2 mutations 5K>E and KRR>E combined), sequence (P63010 whole entry, looked up, stated change not applied): as the sequence (P63010 whole entry, looked up, change not shown) above
AP2 core (recombinant; α trunk, β2 trunk, myc-tagged μ2, σ2) (from UniProt P63010;P84092;P62743) β2:K5E; β2:K12E; β2:K26E; β2:K27E; β2:K29E; β2:K36E, sequence (P62743 whole entry, looked up, stated change not applied): as the sequence (P62743 whole entry, looked up, change not shown) above
AP2 core (recombinant; α trunk, β2 trunk, myc-tagged μ2, σ2) (from UniProt P63010;P84092;P62743) β2:K5E; β2:K12E; β2:K26E; β2:K27E; β2:K29E; β2:K36E, sequence (P84092 whole entry, looked up, stated change not applied): as the sequence (P84092 whole entry, looked up, change not shown) above
AP2 core (recombinant; α trunk, β2 trunk, myc-tagged μ2, σ2) (from UniProt P63010;P84092;P62743) β2:K5E; β2:K12E; β2:K26E; β2:K27E; β2:K29E; β2:K36E, sequence (P63010 whole entry, looked up, stated change not applied): as the sequence (P63010 whole entry, looked up, change not shown) above

AP2 core (recombinant; α trunk, β2 trunk, myc-tagged μ2, σ2) (from UniProt P63010;P84092;P62743) β2:K5E; β2:K12E; β2:K26E; β2:K27E; β2:K29E; β2:K36E
Kd [1]: > 30 µM

AP2 core (recombinant; α trunk, β2 trunk, myc-tagged μ2, σ2) (from UniProt P63010;P84092;P62743) μ2 5K>E (five lysines of the second basic region of C-μ2 to glutamate; residues not printed)
Kd [2]: 0.52 µM
Kd [3]: 0.95 µM
Kd [4]: 11 µM

AP2 core (recombinant; α trunk, β2 trunk, myc-tagged μ2, σ2) (from UniProt P63010;P84092;P62743) μ2 KRR>E (three basic residues of the third basic region of C-μ2 to glutamate; residues not printed)
Kd [2]: 0.33 µM
Kd [3]: 0.85 µM
Kd [4]: 7.5 µM

isolated C-terminal domain of μ2 (C-μ2) (from UniProt P84092 1-435) (domain or fragment)
Kd [5]: 0.5 µM
relaxation time at 15 μM C-μ2 [5]: 0.0073 s

AP2 core (recombinant; α trunk, β2 trunk, myc-tagged μ2, σ2) (from UniProt P63010;P84092;P62743) μ2PIP- (μ2 5K>E and μ2 KRR>E combined; individual residues not printed)
Kd [2]: 6.2 µM
Kd [3]: 2.5 µM
Kd [4]: 30 µM
Kd [1]: 0.28 µM

μ2Thr156Glu AP2 core (from UniProt P63010 1-592; P84092 1-236; P84092 237-435; P62743 1-142) (complex)
fold less binding than phosphorylated AP2 core [6]: 20 fold
fold weaker binding than wild-type core [6]: 4 fold

μ2^PIP-Core (AP2 core with the μ2 mutations 5K>E and KRR>E combined) (from UniProt P63010 1-592; P84092 1-236; P84092 237-435; P62743 1-142) (complex)
fold inhibition of binding to PtdIns4,5P2/YxxΦ liposomes against the wild-type core [7]: 20 fold
fold reduction of binding to PtdIns4,5P2/[ED]xxxL[LI] liposomes against the wild-type core [8]: 3 fold

AP2 core (recombinant; α trunk, β2 trunk, myc-tagged μ2, σ2) (from UniProt P63010 1-592; P84092 1-236; P84092 237-435; P62743 1-142) (complex)
Kd [9]: 3.5 µM
koff [9]: 2 s⁻¹
kon [9]: 1e+06 M⁻¹ s⁻¹
relaxation time at 15 μM AP2 with heparin [9]: 0.059 s
relaxation time with heparin [9]: 0.056 s
Kd [10]: 3.4 µM
Kd [5]: 4000 µM
relaxation time at 30 μM AP2 without heparin [5]: 62.5 s

AP2 core (recombinant; α trunk, β2 trunk, myc-tagged μ2, σ2) (from UniProt P63010;P84092;P62743) αPIP- (substitutions in the PtdIns4,5P2-binding site of α; not printed)
response ([2]; 200 nM AP2 core, PtdIns4,5P2/TGN38 liposomes, corrected for non-specific binding to PC/PE liposomes, baseline about 80 RU, parent: est. 1800, read off a plot): 330 RU
Kd [2]: > 30 µM
response ([3]; 200 nM AP2 core, PtdIns4,5P2/CD4P liposomes, corrected for non-specific binding to PC/PE liposomes, baseline about 40 RU, parent: est. 1400, read off a plot): 180 RU
Kd [1]: > 30 µM
